The values below come from US20110171749A1.

The target in the experiment is streptavidin (UniProt P22629). Put plainly: polyaniline polymeric wire biosensor, streptavidin on NC membrane, pulse mode voltammetry.

“biotin conjugate goat anti-mouse IgG (whole molecule), conjugated with magnetic composite Fe2O3/polyaniline particles (antibody)” had a resistance of 4.3 kΩ.
